From the nanobody polyreactivity screen of Harvey et al. (2022)

Assay: yeast display, Sf9 membrane polyspecificity reagent, FACS + sequencing; frameworks hold sequencing errors
How it was run: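 In a synthetic yeast display library (Saccharomyces cerevisiae BJ5465), nanobody expression was induced with galactose for 36–48 hours. FACS gates were set low and high (top ~1%) using anti-HA fluorescence for expression and streptavidin fluorescence for binding of the Sf9 membrane reagent. Each polyreactivity label is drawn from the gate of origin.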

| Sequence | polyreactivity (PSR sort gate) |
| --- | --- |
| QVQLVESCGGLVQAGGRLRLICAASGRTFTYNAMGWYIQAPGQERELVAAINFSGVSTYYADSVKGRFTISRDNAKYTVYLQMNSLKPEDTAVYSCNTVGYHYESDYWGQGTQVTVSS | high polyreactivity |
| QVQIVESGGGLVQEGGSLRISCAASGIIFRRYAMGWYRQAPGKERELVATITRSGSTNYAESVKGRFTISRDNAKNSVYLQMNSLKPEDTAVYYCNADDIRGGVGYDYWGQGTQVTVSS | high polyreactivity |
| QVQLVESGGGLVQARGSLRLSCAASGITFRYYAMGWYRQAPGKERELVASISWSGGSTYYADSVKGRFTISRDNAKNTVYLQMNSLKPEDTAVYYCAADILTFWYRYYYWGQGTQVTVSS | high polyreactivity |
| QVQLVESAAGLVQAGGSLRLSCAASGRISHRNAMGWSRQAPGKERELVAAITSGGSTNYADSVKGRFTISRDNAKNTVYLQMNSLKPEDTAVYYCAARRLPSTWYIYWGQGTQVTVSS | low polyreactivity |
| HVQLVESAGGLVQAGGSLRLSCAASGSILPRYAKGWYRQAPGKERELVAAISWSGGNTYYADSVKGRFTISRDNAKNTVYFQMNSLTPEDTAVSYSAARQYDWVIQGSRVRPVHYDYWGQGTQVNVSS | high polyreactivity |
| QVQLVESGGGLVQAGGSLRLSCAASGLTFDYYAMGWYRQAPGKERELVAAISIGGSTNYADSVKGRFTISRDNAKNTVYLQMNSLKPEDTAVYYCNAEFAPWGSAYGHDQYDYWGQGTQVTVSS | low polyreactivity |
| QVQLVESGGGLVQAGGSLRLSCAASGRIFGTYAMGWYRQAPGKERELVAAITSSGGRTYYADSVKGRFTISRDNAKNTVYLQMNRLKPEDTAVYYCAAYPWYRMWGQGTQVTVSS | high polyreactivity |
| QVQLVESGGGLVQAGGSLSLSCAASGRTIAYYAMGWDRQAPGKEMEFVAAISSTGTSTYYADSVKGRFTISRDNAKNTVYLQMNSLKPEDTGVYYCNARVATYRLHSKFYYWGQRTQVTVSS | high polyreactivity |
| QVQLVESAGGLVQAGGSLRLSCAASGSTFANYAMGWYRQAPGKERELVAGISWRGGRTYYADSVKGRFTISRDNAKNTVYLQMNSLKPEDTAVYYSAVVHQTFTGDYWGQGTQVTVSS | high polyreactivity |
| QVQVVESGGGLVQAGGSLRLSCAASGFTFYPNAMGWYRQAPGKERELVATITGSGGSTNYADSVKGRFPISRDTAQNTVYLQMNSLKPEDTAVYYCAADYAVYSFTDFNYWGQGTQVTVSS | high polyreactivity |
| QVQLVESGGGLVQAGGSLRLSCAASGITFEGYALGWYRQAPGKERELVAAIRSSGTSTYYADSVKGRFTISRDNAKNTVYLQMNSLKPEDTAVYYCNRARSSSRYDYWGQGTQVTVSS | low polyreactivity |
| QVQLVESGGGLVQAGGSLRLSCAASGRIFGYNAMGWYRQAPGKERELVAAIDYTGGSTYYADSVKGRFTISRDNAKNTVYLQMNSLKPEDTAVYYCAKDRTTPWEEDDYWGQGTQVTVSS | low polyreactivity |
| QVQLVESGGGLVQAGGSLRLSCAASGSTFSRNAMGWYRQAPGKERELVASISWSGARTYYADSVKGRFTISRDNAKNTVYLQMNSLKPEDTAVYYCAKFRSYRGPYNYWGQGTQVTVSS | high polyreactivity |
| QVQLVESGGGLVQAGGSLRLSCAASGSIFYVNTMGWYRQAPGKERELVAVIDYGGDSTYYADSVKGRFTISRDNAKNTVYLQMNSLKPEDTAVYYCAADAWLLPYNYWGQGTQVTVSS | low polyreactivity |
| QVQLVESGGGLVQAGGSLRLSCAASGSTFVTNVMGSYRQAPGKERELVAAISYSGGNTYYEDSVKGRFTISRDNSKNTVYLQRNSLNPEDTAVYYCDASYKQFKKMGYWGQGTQVTVSS | high polyreactivity |
| QVQLVESGGGLVQAGGSLRLSCAASGRIFWPYAMGWYRQAPGKERELVAAITSGGSTYYADSVKGRFTLSRDNAKNTVYLQMTSLKPEDTAVYYCAKRSSGVSVPVAYGGIKRYNSWGQGTQVTVSS | low polyreactivity |
| QVQLVESGGGLVQAGGSLRLSCAASGRIFRYYAMGWYRQAPGKERELVAAITQRGGSTYADSVKGRFTISRDNANNTVYLQMNSLKPEDTAVFYCAYRGSFLYDYWGQGTQVTVSS | low polyreactivity |
| QVQLVESGVGLDQARGSLRLSCAASGITFDDYAMGWYRQAPGKERELVAAISVSGGDTYYADSVKGRFTISRDNAKNTVYLQMNSLKPEDSAVYYCAAEEVSPRWYEYWGQGTQVTVSS | low polyreactivity |
| HVQLVESGGGLVQAGGRLRLSCAASGRNFVENAIGWYRQAPGKEWEFVAAISGGGSTDYADSVKGRFTISRDNAKNTVYLQMNSLKPEDTAVYYCNARQVFTTAGREMDYWGQGTQVTVSS | low polyreactivity |
| QVQLVESGGGLVQAGGSLRLSCAASGRTFVFNAMGWYRQAPGKERELVAAITKNGGSTYYADSVKGRFTISRDNAKNPVYLQMNSLKPEDTAVYYCAGRRGYPFYYWGQGTQVTVSS | low polyreactivity |
| QVQLVESGGGLVQAGGSLRLSCAASGIIFYSYAMGWYRPAPGKERELVAAISTGSSTNYADSVKGRFTISRDNAKNTVYLQMNSLKPEDTAVYYCAKSTAVKPYAYRESGFIYDYWGQGTQVTVSS | low polyreactivity |

| Sequence | polyreactivity (PSR sort gate) |
| --- | --- |
| QVHLVESGGGLVQAGGSLRLSCAASGRTIKRYAMGWYRQAPGKERELVATISRSGSSTYYADSVKGRFTISRANAMNTVYLQMNSLKPEDTAVYYCNAYVPDIWVNGYDSWGQGTQVTVSS | high polyreactivity |
| QVQLVESGGGLVQAGGSLRLICAASGRILDNYAMGWYRQAPGKERELVAAISASGASTYYADSVKGRFTISRDNAKNTVYLQMNSLKPEDTAVYYCNAAARYRWQYDYSLYEYGHWGQGTQVTVSS | high polyreactivity |
| QVQIEESGGGLVQAGGSLRLSCAASGRIFGSYTMGWSRQAPRKERELVAGISRRGGSTYYADSVKGRFTISRDNAKYTVYLQMNSLTTEDTAVYYCNTLRTNLFFTPLGFDYWGQGTQVTVSS | high polyreactivity |
| QVHLVESGGGLVQAGGSLRLSCAASGRIFTYYAMGWYRQAPGKEREFVAAIRRSGGSTDYADSVKGRFTISRDNAKNTVYLQMNSLKPEDTAVYYCAAESPTYPGGEYWGQGTQVTVSS | high polyreactivity |
| QVQLVDSGGGLVQAGGSLRLSCAASGFTFYLYTMGWYRPAPGKERQLVATITSDGGTNYADSVKGRFTISRDNAKNTVYLQMNSLKPEDTAVYYCNAASRRGSRKQAKYDYWGQGTQVTVSS | low polyreactivity |
| QVQLVESGGGLVQAGGSLRLSCAASGRIFLRNDMGWYRQAPGKERELFAGISSDGSTYYADSVKGRFTISRDNAKNTVYLQMNSLKPEDTAVYYCAAERWGNPTDYQFWRPYDYWGQGTKVTVSS | low polyreactivity |
| QVQLVESGVGLVQAGGSLRLSCAASGRTFWYYGMGWYRQAPGKERELVAAISRSGGRTYYADSVKARFTISRDNAKNTVYLQMNSLKPEDTAVYYCGASYRRTFDYWGQGTQVTVSS | high polyreactivity |
| QVQLVETGGGLVQAGGSLRLSCDASGRIFGGYAMGWYRKAPGKERELVAAISASGGRTYYADSVKGRFTISRDNAKNTVYLQMNSLKPEDNAVYYCAASFRRTSLRWLGEYWGQGTQVTVSS | high polyreactivity |
| QVQLVESGGGLVQAGGSLRLSCAASGSTFETYAMGWYRQAPGKERELVAVITSDGSTNYADSVKGRFTISRDNAKNTVYLQMNSLKPEDTAGYYCNADYGFYVPAYPIYWIYEYWGQGTQVTVSS | low polyreactivity |
| QVQLVDSGGGLDQAGGSLPLSCAASGSTFVAYAMGWYRQAPGKERELVADNSTSDGSTRYADSVKGRFTISRDNAKNTVYLQMNSLKPEDTAVYYCAAGSEYYSYGGVRFSFYYWGQGTQVTVSS | low polyreactivity |
| QVQLVESGGGLVQAGGSLRLSCAASGRTFWSYAMGWYRQAPGKEREFVAAISRRGGITYYADSVKGRFTISRDNAKNTVYLQMNSLKPEDTAVYYCAALPASVRRPGWHDYWGQGTQVTVSS | high polyreactivity |
| QVQLVESGGGLVQAGGSLRLSCAASGRTFGYNAMGWYRQAPGKERELVAAIRTIGDSTYYADSVKGRFTISRDNAKNTVYLQMNSLKPEDTAVYYCAARKLRSRYDYWGQGTQVTVSS | high polyreactivity |
| QVQLVESGGGLVQAGGSLRLSCAASGFTFVAYAMGWYRQAPGKERELVAAITWSGSRTYYADSVKGRFTISRDNAKNTVYLQMNSLKPEDTAVYYCAARKTEGHYGYWGQGTQVTVSS | high polyreactivity |
| QVQLVESGGGLVQAGGSLRLSCAASGRTFAWYAMAWYRQAPGKERELVATITSRGGSTYYADSVKGRFTISRDNAKNTVYLQMNSLKPEYTAVYYCAAQSFWRPHQYDYWGQGTQVTVSS | low polyreactivity |
| QVQLVESGGGLVQAGGSLRLSCAASGSTFGTYVMGWYRQAPGKERELVAAISKRGGRTYYADSVKGRFTISRDNAKNTVYLQMNSLKPEDTAVYYCNAVYLYSGSSARYYWGQGTQVTVSS | high polyreactivity |
| QFQLVESRGGLDQAVGSLRLSCAASGFIFAGYVMGLYRQAPGQERELVAGISNSGDNTHYADSVKGRFTISRDNAKNTDYLQMNSLKPEDTAVYYCAAVEQHLAGDDFYSYYYWGQGTQVTLSS | low polyreactivity |
| QVQLEESGGGVVQAGGSLRLSCAASGRIFNYYTMGWYRQATGKERELVARINSSGSTNLRRLCEGALHNFTRQCEVYRLFTDEQPETGRYRVYYCNADTKRSSREYEYWGQGTQVTVSS | low polyreactivity |
| QVQLVESGGGLVQAGGSLRLSCSASGTTFRGYAMGWYRQAPGKEREVVAAISNNGVTTYYADSVKGRFTISRDNAKNTVYLQMNSLKPEDAAVYYCAAGLYHGFAASDEIRGDYWGLGTQVTVSS | low polyreactivity |
| QVQLVESGGGLFQAGVSLRLSCAASGSTFDYYAMGWYRQPPAKERELVAAIRYRGGRTYYADSVKWRFTISRDNAKNTVYLQLNSLKPEDTAVYYCAALTIQSSKTYDYWGQGTQVTVSS | low polyreactivity |
| QVQLVESGGGLVQAGGSLRLSCAASGRTFFTYAMGWYRQAPGKERELVAAITGSGGSTSYADSVKGRFTISRDNAKNTVYLQMNSLKPEDTAVYYCAADWQELEYDYWGQGTQVTVSS | low polyreactivity |
